US20150125479A1

Target: RSV fusion (F) glycoprotein (respiratory syncytial virus) (UniProt P12568)
Assay: SPR (Biacore); the partner is not named in the row, RSV F protein is taken from the legend of FIG. 4

NUMAX™ (motavizumab), MEDI-524 Mab (antibody)
Kd: 4 pM
